Data on three proteins can be found in paper doi:10.1101/2020.08.13.232140, “Assembly and symmetry of the fungal E3BP-containing core of the Pyruvate Dehydrogenase Complex” (bioRxiv, 2020).

A word on the stoichiometry N: it is the number of molecules, sites or subunits per partner or assembly.

Data set [1] concerns the molecule itself. In words: cryo-EM structure; native PDC purified from N. crassa mitochondria; single-particle reconstructions under icosahedral and tetrahedral symmetry (classes X, Y, N).
Data set [2] concerns the molecule itself. In words: cryo-EM structure; reconstituted tE2+PX30 subcomplex of separately expressed components; icosahedral (map R1) and tetrahedral (maps R2X/Y) reconstructions.
Data set [3] deals with the molecule itself. In words: cryo-EM structure; co-expressed tE2/PX261 subcomplex; reconstruction under icosahedral symmetry.

B1: E2 of the native N. crassa pyruvate dehydrogenase complex (PDC core) (natural protein, UniProt P20285 29-458, looked up)
chain: ASYPPHTVVKMPALSPTMTSGGIGAWQKKPGDKIEPGEVLVEIETDKAQMDFEFQEEGVLAKILKDSGEKDVAVGNPIAILVEEGTDVNAFKDFTLKDAGGETSPAVPKDEPKNESTASAPTPAPTPAPEPENTSFTGRFQTALEREPNALPAAKRLAREKGIDLRNVKGSGPGGKITEEDVKKALASAPAAGAAAAAYTDVPISGMRKTIAARLKESVTENPHFFVSTNLSVSKLLKLRQALNSSADGRYKLSVNDFLIKAMGIASKRVPTVNSSWRDGVIRQFETVDVSVAVATPNGLITPIVKGVEGKGLESISAAVKELAKKARDGKLKPEEYQGGSISISNMGMNPAVQSFTAIINPPQAAILAVGAPQKVAVPVENEDGTTGVSWDEQIIVTASFDHKVVDGAVGAEWIRELKKVIENPLELLL
notes: E2 (acetyltransferase) component of the pyruvate dehydrogenase complex, Neurospora crassa, UniProt P20285; residues 232-458 identified in the native reconstruction; the recombinant E2 construct starts at residue 29; Strain WT STA74 / ATCC 14692; also called E2 core; source: endogenous, PDC purified from N. crassa mitochondria (sucrose cushion, sucrose gradient, SEC); copies: 60
As to B1, in data set [1], the “stoichiometry N” value is 60.

B2: N. crassa E2 core-forming domain (tE2), separately expressed (domain or fragment, UniProt P20285 225-458, looked up)
chain: AAYTDVPISGMRKTIAARLKESVTENPHFFVSTNLSVSKLLKLRQALNSSADGRYKLSVNDFLIKAMGIASKRVPTVNSSWRDGVIRQFETVDVSVAVATPNGLITPIVKGVEGKGLESISAAVKELAKKARDGKLKPEEYQGGSISISNMGMNPAVQSFTAIINPPQAAILAVGAPQKVAVPVENEDGTTGVSWDEQIIVTASFDHKVVDGAVGAEWIRELKKVIENPLELLL
notes: E2 of the pyruvate dehydrogenase complex, Neurospora crassa, residues 225-458 of UniProt P20285 (core-forming catalytic domain); model built for 227-458; pRSET vector; the His6-tag is cleavable with thrombin; Icosahedral assembly; source: E. coli Rosetta2 (DE3), single expression
As to B2, the binding result in data set [2] is listed as “binds”.

B3: untagged N. crassa E2 core-forming domain (tE2), co-expressed with PX constructs (domain or fragment, UniProt P20285 225-458, looked up)
chain: B2 chain
notes: E2 of the pyruvate dehydrogenase complex, Neurospora crassa, residues 225-458 of UniProt P20285 (core-forming catalytic domain); petDuet dual-expression vectors were built with the single-expression genes as template; PX stood in the His-tagged MCS1, tE2 untagged; also called untagged E2 core-forming domain; PDC core; source: E. coli Rosetta2 (DE3), co-expressed with His-tagged PX from petDuet, …
As for B3, the binding result in data set [3] is reported as “binds”.
